Test results reported in patent US20250276077A1, “EPHA2 ANTIBODIES” (Immunome, Inc., priority 2022, published 2025).

Assays:
[1] = target: Human EphA2 (ephrin receptor A2), native, in human tumor tissue (human) (UniProt P29317); test: IF tumor tissue STS, 30 ug/ml
[2] = target: Human EphA2 (ephrin receptor A2), native, in human tumor tissue (human) (UniProt P29317); test: IF tumor tissue RCC-papillary, 10 ug/ml
[3] = target: Human EphA2 (ephrin receptor A2), native, in human tumor tissue (human) (UniProt P29317); test: IF tumor tissue Uterine, 0.1 ug/ml
[4] = target: Human EphA2 (ephrin receptor A2), native, in human tumor tissue (human) (UniProt P29317); test: IF tumor tissue PANC, 3 ug/ml
[5] = target: Human EphA2 (ephrin receptor A2), native, in human tumor tissue (human) (UniProt P29317); test: IF tumor tissue PANC, 1 ug/ml
[6] = target: Human EphA2 (ephrin receptor A2), native, in human tumor tissue (human) (UniProt P29317); test: IF tumor tissue NSCLC-SQ, 1 ug/ml
[7] = target: Human EphA2 (ephrin receptor A2), native, in human tumor tissue (human) (UniProt P29317); test: IF tumor tissue ESO, 10 ug/ml
[8] = target: Human EphA2 (ephrin receptor A2), native, in human tumor tissue (human) (UniProt P29317); test: IF tumor tissue NSCLC-Adeno, 1 ug/ml
[9] = target: C-terminally His-tagged hEphA2-FN2 (Thr437-Asn534+His tag) (human) (UniProt P29317); test: SPR Biacore T200, 25 C; mIgG2a as immobilized ligand, hEphA2-FN2-His analyte
[10] = target: Human EphA2 (ephrin receptor A2), native, in human tumor tissue (human) (UniProt P29317); test: tissue staining of human cancer samples, 3 ug/ml
[11] = target: Human EphA2 (ephrin receptor A2), native, in human tumor tissue (human) (UniProt P29317); test: IF tumor tissue STS, 10 ug/ml
[12] = target: Human EphA2 (ephrin receptor A2), native, in human tumor tissue (human) (UniProt P29317); test: IF tumor tissue ESO, 0.3 ug/ml
[13] = target: Human EphA2 (ephrin receptor A2), native, in human tumor tissue (human) (UniProt P29317); test: IF tumor tissue URO, 3 ug/ml
[14] = target: Human EphA2 (ephrin receptor A2), native, in human tumor tissue (human) (UniProt P29317); test: IF tumor tissue MELA, 0.3 ug/ml
[15] = target: Human EphA2 (ephrin receptor A2), native, in human tumor tissue (human) (UniProt P29317); test: IF tumor tissue NSCLC-SQ, 0.1 ug/ml
[16] = target: Human EphA2 (ephrin receptor A2), native, in human tumor tissue (human) (UniProt P29317); test: IF tumor tissue NSCLC-SQ, 0.3 ug/ml
[17] = target: Human EphA2 (ephrin receptor A2), native, in human tumor tissue (human) (UniProt P29317); test: IF tumor tissue NSCLC-Adeno, 3 ug/ml
[18] = target: Human EphA2 (ephrin receptor A2), native, in human tumor tissue (human) (UniProt P29317); test: IF tumor tissue PANC, 0.3 ug/ml
[19] = target: Human EphA2 (ephrin receptor A2), native, in human tumor tissue (human) (UniProt P29317); test: IF tumor tissue MELA, 3 ug/ml
[20] = target: Human EphA2 (ephrin receptor A2), native, in human tumor tissue (human) (UniProt P29317); test: IF tumor tissue NSCLC-Adeno, 0.3 ug/ml
[21] = target: Human EphA2 (ephrin receptor A2), native, in human tumor tissue (human) (UniProt P29317); test: IF tumor tissue MELA, 0.1 ug/ml
[22] = target: Human EphA2 (ephrin receptor A2), native, in human tumor tissue (human) (UniProt P29317); test: IF tumor tissue URO, 0.3 ug/ml
[23] = target: Human EphA2 (ephrin receptor A2), native, in human tumor tissue (human) (UniProt P29317); test: IF tumor tissue Uterine, 3 ug/ml
[24] = target: Human EphA2 (ephrin receptor A2), native, in human tumor tissue (human) (UniProt P29317); test: IF tumor tissue Uterine, 0.3 ug/ml
[25] = target: Human EphA2 (ephrin receptor A2), native, in human tumor tissue (human) (UniProt P29317); test: IF tumor tissue URO, 10 ug/ml
[26] = target: Human EphA2 (ephrin receptor A2), native, in human tumor tissue (human) (UniProt P29317); test: IF tumor tissue PANC, 30 ug/ml
[27] = target: Human EphA2 (ephrin receptor A2), native, in human tumor tissue (human) (UniProt P29317); test: IF tumor tissue RCC-papillary, 30 ug/ml
[28] = target: Human EphA2 (ephrin receptor A2), native, in human tumor tissue (human) (UniProt P29317); test: IF tumor tissue PANC, 0.1 ug/ml
[29] = target: Human EphA2 (ephrin receptor A2), native, in human tumor tissue (human) (UniProt P29317); test: IF tumor tissue NSCLC-Adeno, 0.1 ug/ml
[30] = target: Human EphA2 (ephrin receptor A2), native, in human tumor tissue (human) (UniProt P29317); test: IF tumor tissue NSCLC-SQ, 10 ug/ml
[31] = target: Human EphA2 (ephrin receptor A2), native, in human tumor tissue (human) (UniProt P29317); test: IF tumor tissue MELA, 30 ug/ml
[32] = target: Human EphA2 (ephrin receptor A2), native, in human tumor tissue (human) (UniProt P29317); test: IF tumor tissue URO, 0.1 ug/ml

C-terminally His-tagged hEphA2-FN2 (Thr437-Asn534+His tag) (human), sequence (P29317 437-534 limits assumed): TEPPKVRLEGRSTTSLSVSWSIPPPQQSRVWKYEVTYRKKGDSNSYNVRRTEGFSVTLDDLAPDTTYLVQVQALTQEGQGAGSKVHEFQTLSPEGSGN
Human EphA2 (ephrin receptor A2), native, in human tumor tissue (human), sequence (P29317 25-976): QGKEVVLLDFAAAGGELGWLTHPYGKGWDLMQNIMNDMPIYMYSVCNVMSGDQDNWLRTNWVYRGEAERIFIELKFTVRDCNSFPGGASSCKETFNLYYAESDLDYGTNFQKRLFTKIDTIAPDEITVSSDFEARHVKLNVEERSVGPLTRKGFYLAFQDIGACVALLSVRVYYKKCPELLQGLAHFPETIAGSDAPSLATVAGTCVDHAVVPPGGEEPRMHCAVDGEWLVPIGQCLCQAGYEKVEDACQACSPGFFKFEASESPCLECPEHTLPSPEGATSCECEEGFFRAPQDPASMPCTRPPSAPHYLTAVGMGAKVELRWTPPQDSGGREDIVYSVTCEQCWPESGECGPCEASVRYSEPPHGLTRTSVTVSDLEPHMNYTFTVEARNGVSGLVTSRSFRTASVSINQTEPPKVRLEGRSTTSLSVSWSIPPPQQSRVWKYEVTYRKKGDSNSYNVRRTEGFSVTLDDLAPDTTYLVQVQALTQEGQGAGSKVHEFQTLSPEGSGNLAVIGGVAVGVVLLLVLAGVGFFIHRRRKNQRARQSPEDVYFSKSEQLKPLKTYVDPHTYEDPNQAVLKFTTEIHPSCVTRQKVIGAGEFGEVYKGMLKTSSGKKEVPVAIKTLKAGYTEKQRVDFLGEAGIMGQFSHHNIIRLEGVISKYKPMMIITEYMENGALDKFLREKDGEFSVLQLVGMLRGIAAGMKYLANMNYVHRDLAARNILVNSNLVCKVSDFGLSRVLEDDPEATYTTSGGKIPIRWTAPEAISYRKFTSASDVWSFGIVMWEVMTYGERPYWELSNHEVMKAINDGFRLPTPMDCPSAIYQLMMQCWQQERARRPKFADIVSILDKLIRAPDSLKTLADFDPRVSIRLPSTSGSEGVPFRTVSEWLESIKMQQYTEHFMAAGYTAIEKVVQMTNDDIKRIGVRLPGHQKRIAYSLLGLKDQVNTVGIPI

AB-010018 (mouse monoclonal antibody precursor of DS-8895a; mouse IgG2a format)
tissue reactivity score [1]: 2
tissue reactivity score [2]: 2
tissue reactivity score [3]: 1
tissue reactivity score [4]: 2
tissue reactivity score [5]: 2
tissue reactivity score [6]: 1
tissue reactivity score [7]: 1
tissue reactivity score [8]: 1
Kd [9]: 4.3 nM
koff [9]: 0.0021 s⁻¹
kon [9]: 490000 M⁻¹ s⁻¹
Reactive (% of samples), Bladder Urothelial Carcinoma [10]: 77%
Reactive (% of samples), Breast Cancer [10]: 93%
Reactive (% of samples), Cervical Squamous Cell Carcinoma [10]: 75%
Reactive (% of samples), Colorectal Adenocarcinoma [10]: 85%
Reactive (% of samples), Head & Neck Squamous Cell Carcinoma [10]: 63%
Reactive (% of samples), Liver Hepatocellular Cell Carcinoma [10]: 39%
Reactive (% of samples), Melanoma [10]: 46%
Reactive (% of samples), Ovarian Cancer [10]: 71%
Reactive (% of samples), Soft Tissue Sarcoma [10]: 14%
Reactive (% of samples), Stomach Adenocarcinoma [10]: 88%
Reactive (% of samples), Testicular Cancer [10]: 17%
Reactive (% of samples), Thyroid Cancer [10]: 13%
Reactive (% of samples), Uterine Cancer [10]: 38%
tissue reactivity score [11]: 1
tissue reactivity score [12]: 1
tissue reactivity score [13]: 2
tissue reactivity score [14]: 2
tissue reactivity score [15]: 1
tissue reactivity score [16]: 1
tissue reactivity score [17]: 1
tissue reactivity score [18]: 2
tissue reactivity score [19]: 2
tissue reactivity score [20]: 1
tissue reactivity score [21]: 1
tissue reactivity score [22]: 2
tissue reactivity score [23]: 2
tissue reactivity score [24]: 2
tissue reactivity score [25]: 2
tissue reactivity score [26]: 2
tissue reactivity score [27]: 2
tissue reactivity score [28]: 2
tissue reactivity score [29]: 1
tissue reactivity score [30]: 1
tissue reactivity score [31]: 2
tissue reactivity score [32]: 2
